Source: PMC2782133, “Interaction of HP1 and Brg1/Brm with the Globular Domain of Histone H3 Is Required for HP1-Mediated Repression” (PLoS Genetics, 2009)

Columns and labels:
GST-HP1γ = target: T1, GST-HP1γ (human, UniProt Q13185 1-183); assay: pull-down; GST fusion proteins bound to agarose beads incubated with purified histones, recombinant B10-tagged H3 constructs or purified Brg1-flag; ELB buffer (50mM HEPES pH 7, 250mM NaCl, 1mM EDTA, 0.1% NP40); elution with 20mM glutathione; western blot (anti-H3, anti-B10 or anti-Brg1); details: both partners purified
T1 construct: HP1γ
T1 sequence (Q13185 whole entry, the tested form may be a part): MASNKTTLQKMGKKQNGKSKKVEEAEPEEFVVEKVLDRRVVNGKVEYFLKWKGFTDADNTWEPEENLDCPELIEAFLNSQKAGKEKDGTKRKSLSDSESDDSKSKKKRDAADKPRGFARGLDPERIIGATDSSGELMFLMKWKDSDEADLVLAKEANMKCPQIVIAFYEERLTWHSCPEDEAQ

GST-HP1α = target: T2, GST-HP1α (human, UniProt P45973 1-191); assay: as above; details: both partners purified
T2 construct: HP1α, human; also called HP1α-derived GST-fusion protein
T2 sequence (P45973 whole entry, the tested form may be a part): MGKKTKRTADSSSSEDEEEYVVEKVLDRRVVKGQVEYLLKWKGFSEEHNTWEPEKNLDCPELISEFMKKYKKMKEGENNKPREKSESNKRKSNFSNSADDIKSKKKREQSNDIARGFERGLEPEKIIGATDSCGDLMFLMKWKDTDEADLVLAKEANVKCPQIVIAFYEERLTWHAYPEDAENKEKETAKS

binding result (GST-HP1γ) | fold excess of HP1α over Brg1 needed for similar binding (GST-HP1α) | Binder
binds | ~50 fold | rH3(35–66), B10/6xHIS-tagged (domain or fragment, histone H3 aa 35-66 (V35 to P66), recombinant; also called Shadock; histone H3 aa 35 to 66) not shown
binds |  | rH3(35–66)V46A, B10/6xHIS-tagged (domain or fragment, histone H3 aa 35-66 with the valine of the PXXVXL motif mutated; also called mutant B10-tagged fragment of histone H3 (aa 35 to 66)) not shown
binds |  | GTVALREIRRYQKSTELLIRKLP (domain or fragment, UniProt P68431 45-67, looked up, histone H3 aa 44-66, recombinant; also called histone H3 aa 44 to 66) [rH3(44–66), B10/6xHIS-tagged]
